US20160137965A1

Key:
α6β1 integrin [1] = target: α6β1 integrin (UniProt P23229); assay: solid-phase binding assay: plate coated with 0.5 µg/cm^2 511E8, not dried, 10 nM α6β1 integrin
α6β1 integrin [2] = target: α6β1 integrin (UniProt P23229); assay: solid-phase binding assay: plate coated with 0.25 µg/cm^2 511E8 with 167 µg/mL gelatin, dried 1 h, 10 nM α6β1 integrin, absorbance at 490 nm
α6β1 integrin [3] = target: α6β1 integrin (UniProt P23229); assay: solid-phase binding assay: plate coated with 0.4 µg/cm^2 511E8, not dried, 10 nM α6β1 integrin
α6β1 integrin [4] = target: α6β1 integrin (UniProt P23229); assay: solid-phase binding assay: plate coated with 0.25 µg/cm^2 511E8 with 500 µg/mL gelatin, dried 1 h, 10 nM α6β1 integrin, absorbance at 490 nm
α6β1 integrin [5] = target: α6β1 integrin (UniProt P23229); assay: solid-phase binding assay: plate coated with 0.5 µg/cm^2 511E8 with 20% glucose (or some other candidates), dried 24 h, stored 1 week at 4°C, 10 nM α6β1 integrin, absorbance at 490 nm
α6β1 integrin [6] = target: α6β1 integrin (UniProt P23229); assay: solid-phase binding assay: plate coated with 1.0 µg/cm^2 511E8, not dried, 10 nM α6β1 integrin
α6β1 integrin [7] = target: α6β1 integrin (UniProt P23229); assay: solid-phase binding assay: plate coated with 0.4 µg/cm^2 511E8 with 0.8 µg/cm^2 211E8, dried 24 h, 10 nM α6β1 integrin, absorbance at 490 nm
α6β1 integrin [8] = target: α6β1 integrin (UniProt P23229); assay: solid-phase binding assay: plate coated with 0.5 µg/cm^2 511E8 alone, dried 24 h, stored 1 week at 4°C, 10 nM α6β1 integrin, absorbance at 490 nm
α6β1 integrin [9] = target: α6β1 integrin (UniProt P23229); assay: solid-phase binding assay: plate coated with 0.5 µg/cm^2 511E8 with 0.05% gelatin, dried 24 h, stored 1 week at 4°C, 10 nM α6β1 integrin, absorbance at 490 nm
α6β1 integrin [10] = target: α6β1 integrin (UniProt P23229); assay: solid-phase binding assay: plate coated with 0.4 µg/cm^2 511E8 with 1.6 µg/cm^2 211E8, dried 24 h, 10 nM α6β1 integrin, absorbance at 490 nm
α6β1 integrin [11] = target: α6β1 integrin (UniProt P23229); assay: solid-phase binding assay: plate coated with 0.5 µg/cm^2 511E8 with 0.1% BSA, dried 24 h, stored 1 week at 4°C, 10 nM α6β1 integrin, absorbance at 490 nm
α6β1 integrin [12] = target: α6β1 integrin (UniProt P23229); assay: solid-phase binding assay: plate coated with 0.75 µg/cm^2 511E8, dried 1 h at room temperature, 10 nM α6β1 integrin, absorbance at 490 nm
α6β1 integrin [13] = target: α6β1 integrin (UniProt P23229); assay: solid-phase binding assay: plate coated with 1.0 µg/cm^2 521E8, not dried, 10 nM α6β1 integrin
α6β1 integrin [14] = target: α6β1 integrin (UniProt P23229); assay: solid-phase binding assay: plate coated with 0.5 µg/cm^2 521E8, not dried, 10 nM α6β1 integrin

Chain of UniProt P23229 (P23229 other isoform, or with tags, fused parts or gaps limits assumed, chain 1 of 2): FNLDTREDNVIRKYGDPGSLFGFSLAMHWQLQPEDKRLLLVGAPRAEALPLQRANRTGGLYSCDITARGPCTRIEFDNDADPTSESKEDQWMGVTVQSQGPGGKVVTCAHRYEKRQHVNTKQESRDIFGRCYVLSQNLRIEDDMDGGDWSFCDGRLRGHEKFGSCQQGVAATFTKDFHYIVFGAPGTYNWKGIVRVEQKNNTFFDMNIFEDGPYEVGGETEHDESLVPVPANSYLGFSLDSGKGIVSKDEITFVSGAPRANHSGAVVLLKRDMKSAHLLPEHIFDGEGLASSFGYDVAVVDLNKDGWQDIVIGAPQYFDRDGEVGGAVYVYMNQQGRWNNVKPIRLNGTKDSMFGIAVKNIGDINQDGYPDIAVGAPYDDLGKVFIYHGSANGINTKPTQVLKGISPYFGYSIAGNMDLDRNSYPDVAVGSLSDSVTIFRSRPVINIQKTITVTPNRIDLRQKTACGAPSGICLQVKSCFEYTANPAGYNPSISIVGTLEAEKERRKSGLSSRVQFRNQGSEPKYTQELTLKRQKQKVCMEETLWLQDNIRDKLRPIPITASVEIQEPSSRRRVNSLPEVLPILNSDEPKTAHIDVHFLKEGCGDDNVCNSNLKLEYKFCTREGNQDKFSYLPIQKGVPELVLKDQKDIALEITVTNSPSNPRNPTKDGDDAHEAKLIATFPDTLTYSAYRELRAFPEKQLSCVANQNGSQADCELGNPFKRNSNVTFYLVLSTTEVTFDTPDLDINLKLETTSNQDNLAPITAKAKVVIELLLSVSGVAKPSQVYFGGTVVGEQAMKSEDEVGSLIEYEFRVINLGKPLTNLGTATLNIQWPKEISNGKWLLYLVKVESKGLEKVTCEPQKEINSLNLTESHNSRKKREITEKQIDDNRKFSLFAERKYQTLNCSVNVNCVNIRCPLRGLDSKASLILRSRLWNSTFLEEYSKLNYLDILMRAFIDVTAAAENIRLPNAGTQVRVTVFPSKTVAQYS
Chain of UniProt P23229 (P05556 21-728 limits assumed, chain 2 of 2, further chain): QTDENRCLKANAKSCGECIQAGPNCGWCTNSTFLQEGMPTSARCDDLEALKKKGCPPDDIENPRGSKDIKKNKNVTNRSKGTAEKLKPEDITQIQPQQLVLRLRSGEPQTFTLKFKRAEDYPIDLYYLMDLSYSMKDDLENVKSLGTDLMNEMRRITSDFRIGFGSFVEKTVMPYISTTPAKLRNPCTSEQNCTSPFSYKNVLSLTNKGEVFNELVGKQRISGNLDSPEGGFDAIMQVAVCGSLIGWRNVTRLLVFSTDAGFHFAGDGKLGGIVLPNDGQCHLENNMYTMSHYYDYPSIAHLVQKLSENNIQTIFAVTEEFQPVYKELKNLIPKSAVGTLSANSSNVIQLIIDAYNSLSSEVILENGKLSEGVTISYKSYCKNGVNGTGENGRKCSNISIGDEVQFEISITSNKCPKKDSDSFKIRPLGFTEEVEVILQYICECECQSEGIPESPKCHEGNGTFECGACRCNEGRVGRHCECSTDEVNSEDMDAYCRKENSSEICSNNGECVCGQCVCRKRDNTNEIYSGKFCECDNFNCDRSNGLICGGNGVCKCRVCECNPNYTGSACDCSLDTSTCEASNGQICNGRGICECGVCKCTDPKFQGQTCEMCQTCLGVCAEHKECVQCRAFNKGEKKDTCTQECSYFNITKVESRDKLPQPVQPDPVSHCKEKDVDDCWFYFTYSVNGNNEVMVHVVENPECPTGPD

| absorbance at 490 nm (amount of bound α6β1 integrin) (absorbance at 490 nm) (α6β1 integrin [1]) | integrin binding activity after drying (percent remaining) (α6β1 integrin [2]) | absorbance at 490 nm (amount of bound α6β1 integrin) (absorbance at 490 nm) (α6β1 integrin [3]) | integrin binding activity after drying (percent remaining) (α6β1 integrin [4]) | integrin binding activity relative to undried 511E8 control (100%) (α6β1 integrin [5]) | absorbance at 490 nm (amount of bound α6β1 integrin) (absorbance at 490 nm) (α6β1 integrin [6]) | integrin binding activity relative to undried 511E8 control (α6β1 integrin [7]) | integrin binding activity relative to undried 511E8 control (100%) (α6β1 integrin [8]) | integrin binding activity relative to undried 511E8 control (100%) (α6β1 integrin [9]) | integrin binding activity relative to undried 511E8 control (α6β1 integrin [10]) | integrin binding activity relative to undried 511E8 control (100%) (α6β1 integrin [11]) | decrease of the amount of bound integrin after drying, against the undried control (α6β1 integrin [12]) | absorbance at 490 nm (amount of bound α6β1 integrin) (absorbance at 490 nm) (α6β1 integrin [13]) | absorbance at 490 nm (amount of bound α6β1 integrin) (absorbance at 490 nm) (α6β1 integrin [14]) | Substance |
| --- | --- | --- | --- | --- | --- | --- | --- | --- | --- | --- | --- | --- | --- | --- |
| 2.62 | 40% | 1.07 | 70% | 40% | 2.96 | 30% | < 10% | 90% | 80% | 90% | 30% |  |  | Human recombinant laminin 511E8 (from UniProt O15230 2534-3327; P07942 1561-1786; P11047 1362-1608) (ligand) |
|  |  |  |  |  |  |  |  |  |  |  |  | 2.83 | 2.75 | Human recombinant laminin 521E8 (from UniProt O15230 2534-3327; P55268 1573-1798; P11047 1362-1608) (ligand) |
